Data reported in patent US20110212843, “STRUCTURE BASED AND COMBINATORIALLY SELECTED OLIGONUCLEOSIDE PHOSPHOROTHIOATE AND PHOSPHORODITHIOATE APTAMER TARGETING AP-1 TRANSCRIPTION FACTORS” (BOARD OF REGENTS, THE UNIVERSITY OF TEXAS SYSTEM, published 2011).

Key:
[1] = target: AP-1 c-Jun (Homo sapiens, UniProt P05412 P05412:1-331); assay: EMSA; specific binding to recombinant human c-Jun dimers; conditions: chain copies: 2 stated
[2] = target: T1, NF-kB p50 homodimer (UniProt P19838 P19838:1-433); assay: bead fluorescence, Alexa Fluor 488-p50; conditions: chain copies: 2 stated
T1 sequence (P19838 1-433, one chain of several): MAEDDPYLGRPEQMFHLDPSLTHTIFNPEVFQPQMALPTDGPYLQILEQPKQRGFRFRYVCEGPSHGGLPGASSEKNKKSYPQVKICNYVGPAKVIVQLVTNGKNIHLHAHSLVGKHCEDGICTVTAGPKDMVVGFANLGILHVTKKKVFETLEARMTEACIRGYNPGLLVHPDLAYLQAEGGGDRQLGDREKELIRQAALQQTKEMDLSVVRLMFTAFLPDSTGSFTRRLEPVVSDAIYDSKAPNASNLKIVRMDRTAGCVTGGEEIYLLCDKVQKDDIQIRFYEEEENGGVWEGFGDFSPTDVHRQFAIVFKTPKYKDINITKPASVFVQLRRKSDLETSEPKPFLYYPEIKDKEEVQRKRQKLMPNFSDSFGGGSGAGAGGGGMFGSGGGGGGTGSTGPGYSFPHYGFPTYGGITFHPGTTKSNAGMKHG
Excerpt: (§1) The dsDNA thioaptamer library beads were screened for the ability to bind the NF-κB p50/p50 dimer labeled with the Alexa Fluor 488 dye (Molecular Probes). After initial binding of protein, the beads were thoroughly washed with PBS with 0.1% Tween 20 to minimize nonspecific binding. Typically, a few positive beads were intensely stained when viewed by fluorescence, while the majority of the beads remained unstained as (data not shown). With the aid of a micropipette coupled to a micromanipulator, the intensely stained beads were retrieved. Only highly positive beads from several thousand were found using this method. As described below, multicolor flow cytometry and cell/bead sorting was used to automate the selection process to select the tightest binding thioaptamer-protein complexes.
(§2) Sequencing may also be obtained directly from the bead. Each individually selected bead was washed thoroughly with 8 M urea (pH 7.2) to remove the protein and was directly used for the “one-bead one-PCR” amplification using the 5′ and 3′ end primers. The PCR product was cloned using the TA Cloning procedure (Invitrogen) and sequenced on an ABI Prism 310 Genetic Analyzer (Applied Biosystems). The four thioaptamers listed in Table 3 were obtained from the library. […] The fluorescence intensity of all of the beads viewed under the fluorescence microscope was qualitatively similar to the intensity of the selected bead containing this sequence within the combinatorial library. […] Thus, the split synthesis has been used to create a “one-bead-one sequence” ODN and that PCR can be used to identify an S-ODN bound to a bead (Yang et al., 2002; Gorenstein et al, US & Foreign Patents pending, 1999 a, b, 2001, 2002).

[3] = target: NF-kB p65 (Rel A) homodimer (UniProt Q04206 Q04206:1-551)
Chain of NF-kB p65 (Rel A) homodimer (Q04206 whole entry, one chain of several): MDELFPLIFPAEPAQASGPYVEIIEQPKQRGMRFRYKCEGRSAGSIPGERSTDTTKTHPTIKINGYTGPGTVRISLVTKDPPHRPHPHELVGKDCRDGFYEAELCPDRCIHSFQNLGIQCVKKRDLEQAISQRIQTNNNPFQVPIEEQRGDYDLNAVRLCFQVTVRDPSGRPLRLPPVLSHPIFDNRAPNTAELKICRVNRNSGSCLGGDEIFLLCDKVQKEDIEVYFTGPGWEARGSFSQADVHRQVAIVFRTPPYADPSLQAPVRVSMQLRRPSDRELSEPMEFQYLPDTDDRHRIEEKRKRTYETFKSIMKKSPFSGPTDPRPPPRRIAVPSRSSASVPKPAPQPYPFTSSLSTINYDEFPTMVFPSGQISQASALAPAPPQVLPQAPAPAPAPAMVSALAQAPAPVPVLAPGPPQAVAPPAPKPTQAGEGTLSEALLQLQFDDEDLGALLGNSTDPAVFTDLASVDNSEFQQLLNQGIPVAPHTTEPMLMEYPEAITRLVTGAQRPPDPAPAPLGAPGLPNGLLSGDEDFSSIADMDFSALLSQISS

[4] = target: T1, NF-kB p50 homodimer; assay: sub-nM binding affinity; conditions: chain copies: 2 stated
[5] = target: T1, NF-kB p50 homodimer; assay: resynthesised on bead; text labels it SEQ ID NO 7 but printed sequence differs; conditions: chain copies: 2 stated
Excerpt: as §2

[6] = target: T1, NF-kB p50 homodimer; assay: bead fluorescence, Alexa Fluor 488-p50; PBS 0.1% Tween 20 wash; conditions: chain copies: 2 stated
Excerpt: as §1
Sequencing may also be obtained directly from the bead. Each individually selected bead was washed thoroughly with 8 M urea (pH 7.2) to remove the protein and was directly used for the “one-bead one-PCR” amplification using the 5′ and 3′ end primers. The PCR product was cloned using the TA Cloning procedure (Invitrogen) and sequenced on an ABI Prism 310 Genetic Analyzer (Applied Biosystems). […] The fluorescence intensity of all of the beads viewed under the fluorescence microscope was qualitatively similar to the intensity of the selected bead containing this sequence within the combinatorial library. […]

Chain of AP-1 c-Jun (P05412 whole entry, one chain of several): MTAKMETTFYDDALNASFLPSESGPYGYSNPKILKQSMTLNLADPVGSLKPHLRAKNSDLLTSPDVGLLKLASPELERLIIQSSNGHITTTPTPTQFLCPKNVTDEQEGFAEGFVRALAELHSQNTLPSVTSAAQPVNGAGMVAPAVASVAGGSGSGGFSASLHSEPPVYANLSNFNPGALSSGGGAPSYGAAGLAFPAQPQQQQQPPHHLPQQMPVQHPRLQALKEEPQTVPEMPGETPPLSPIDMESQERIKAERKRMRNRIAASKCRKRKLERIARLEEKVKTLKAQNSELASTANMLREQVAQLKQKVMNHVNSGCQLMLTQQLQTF

B1: XBY-S2 (dsDNA)
DNA 1: CCAGTGACTCAGTG
DNA 2: CACTGAGTCACTGG
modifications: phosphorodithioates, 6 in total, 3' of T at S2 positions as printed (3 per strand)
binding result [1]: binds

B2: Split-synthesis thioaptamer SEQ 9 (dsDNA)
DNA 1: AGTTGCAGGTCAGGACCCATTT
DNA 2: AAATGGGTCCTGACCTGCAACT
modifications: PS 3' of lower-case bases in AGTTGcAGGtCaGgACCCAtTt, one strand
binding result [2]: binds

B3: XBY-6 (dsDNA)
DNA 1: CCAGGAGATTCCAC
DNA 2: GTGGAATCTCCTGG
modifications: phosphorodithioate 3' of T9 and T10 of top strand and 3' of each T printed as S2T in bottom strand (4), 6 in total
Kd [3]: 1.4 nM
Kd [4]: < 1 nM

B4: Split-synthesis thioaptamer SEQ 8 (dsDNA)
DNA 1: ATGCACATCTCAGGATGACGGT
DNA 2: ACCGTCATCCTGAGATGTGCAT
modifications: PS 3' of lower-case bases in AtGcAcAtCtCaGgAtGaCGGt, one strand
binding result [2]: binds

B5: Resynthesised bead thioaptamer (dsDNA)
DNA 1: CTGTGAGTCGACTGATGACGGT
DNA 2: ACCGTCATCAGTCGACTCACAG
modifications: PS 3' of lower-case bases, one strand
binding result [5]: binds

B6: Split-synthesis thioaptamer SEQ 7 (dsDNA)
DNA 1: CTGTGCATCGAAGTTTGCATTT
DNA 2: AAATGCAAACTTCGATGCACAG
modifications: PS 3' of lower-case bases in CtGTGCatCGAaGTTtGCAtTt, one strand
binding result [2]: binds

B7: Split-synthesis thioaptamer SEQ 6 (dsDNA)
DNA 1: TGTGCAGGGACTGATGACGGT
DNA 2: ACCGTCATCAGTCCCTGCACA
modifications: PS 3' of lower-case bases in tGTGcAGGGACTgAtGaCGGt, one strand
binding result [6]: binds
